B1: mouse IgG1-B10 (PyMSP1_(19)-specific recombinant mouse IgG1) (antibody, V domains shown)
VH: QVQLQQSGPELVKPGASVKVSCKASGYAFTSYNMYWVKQSHGKSLEWIGYIDPYNGGTSYNQKLKGKATLTVDKSSSTAYIHLNSLTSEDSAVYYCTIHYYGYGGFAYWGQGTTVTSS
VL: DIELTQSTAIMSASPGEKVTMTCSASSSVRYMYWYQQKPGSSPRLLIYDTSKLASGVPVRFSGSGSGTSYSLAISRMEAEDAASYYCQQWSSYPPTLGGGTKLEIK
notes: VH of B10 (anti-PyMSP1_19), from pB10-VH/5; mouse IgG1 heavy-chain constant region, amplified from BALB/c genomic DNA; VL of B10, from pB10-VL/10; mouse kappa light chain constant region, amplified from BALB/c genomic DNA; Plasmids pVH-B10-mIgG1 and pVL-B10-mouse kappa; source: HEK-293T, stably transfected; culture supernatant
B2: mouse IgG2a-B10 (PyMSP1_(19)-specific recombinant mouse IgG2a) (antibody, V domains shown)
VH: B1 VH
VL: B1 VL
notes: VH of B10 (anti-PyMSP1_19), from pB10-VH/5; mouse IgG2a heavy-chain constant region, amplified from genomic DNA; VL of B10, from pB10-VL/10; mouse kappa light chain constant region, amplified from BALB/c genomic DNA; Plasmids pVH-B10-mIgG2a and pVL-B10-mouse kappa; source: CHO-K1, stably transfected; culture supernatant
B3: mouse IgG2b-B10 (PyMSP1_(19)-specific recombinant mouse IgG2b) (antibody, V domains shown)
VH: B1 VH
VL: B1 VL
notes: VH of B10 (anti-PyMSP1_19), from pB10-VH/5; mouse IgG2b heavy-chain constant region, amplified from genomic DNA; VL of B10, from pB10-VL/10; mouse kappa light chain constant region, amplified from BALB/c genomic DNA; Plasmids pVH-B10-mIgG2b and pVL-B10-mouse kappa; source: CHO-K1, stably transfected; culture supernatant
B4: mouse IgG3-B10 (PyMSP1_(19)-specific recombinant mouse IgG3) (antibody, V domains shown)
VH: B1 VH
VL: B1 VL
notes: VH of B10 (anti-PyMSP1_19), from pB10-VH/5; mouse IgG3 heavy-chain constant region, amplified from genomic DNA; VL of B10, from pB10-VL/10; mouse kappa light chain constant region, amplified from BALB/c genomic DNA; Plasmids pVH-B10-mIgG3 and pVL-B10-mouse kappa; source: CHO-K1, stably transfected; culture supernatant
B5: mouse IgG1-C1 (PfMSP1_(19)-specific recombinant mouse IgG1) (antibody, V domains shown)
VH: EVQLVQSGPEVKKPGASVKVSCKTSGYSFTSYDINWVRQAPGQGLEWMGRISPYNGKTDYTQTLRGRVTMSTDTSTTTVYLELRSLKSDDTAVYYCAREGVWFAELLSWGEGTLVTVSS
VL: DIVMTQTPGTLSLSPGERATLSCRASQSVSGNYLAWYQQKPGQAPRLLIHGSSDRAAGTPDRFSGRGSGTDFTLTISRLEPEDFAVYYCQQYCSSPFTFGPGTKVEIK
notes: VH of C1 (anti-PfMSP1_19), as the VH of m7; mouse IgG1 heavy-chain constant region, amplified from BALB/c genomic DNA; VL of C1, as the VL of m7; mouse kappa light chain constant region, amplified from BALB/c genomic DNA; Plasmids pVH-C1-mIgG1 and pVL-C1-mouse kappa; also called mIgG1-C1; murine IgG1-C1; source: HEK-293T, stably transfected; culture supernatant, and purified (protein G-Sepharose)
B6: mouse IgG2a-C1 (PfMSP1_(19)-specific recombinant mouse IgG2a) (antibody, V domains shown)
VH: B5 VH
VL: B5 VL
notes: VH of C1 (anti-PfMSP1_19), as the VH of m7; mouse IgG2a heavy-chain constant region, amplified from genomic DNA; VL of C1, as the VL of m7; mouse kappa light chain constant region, amplified from BALB/c genomic DNA; Plasmids pVH-C1-mIgG2a and pVL-C1-mouse kappa; also called mIgG2a-C1; source: CHO-K1, stably transfected; culture supernatant, and purified (protein G-Sepharose)
B7: mouse IgG3-C1 (PfMSP1_(19)-specific recombinant mouse IgG3) (antibody, V domains shown)
VH: B5 VH
VL: B5 VL
notes: VH of C1 (anti-PfMSP1_19), as the VH of m7; mouse IgG3 heavy-chain constant region, amplified from genomic DNA; VL of C1, as the VL of m7; mouse kappa light chain constant region, amplified from BALB/c genomic DNA; Plasmids pVH-C1-mIgG3 and pVL-C1-mouse kappa; also called mIgG3-C1; source: CHO-K1, stably transfected; culture supernatant, and purified (protein G-Sepharose)
B8: mouse IgG2b-C1 (PfMSP1_(19)-specific recombinant mouse IgG2b) (antibody, V domains shown)
VH: B5 VH
VL: B5 VL
notes: VH of C1 (anti-PfMSP1_19), as the VH of m7; mouse IgG2b heavy-chain constant region, amplified from genomic DNA; VL of C1, as the VL of m7; mouse kappa light chain constant region, amplified from BALB/c genomic DNA; Plasmids pVH-C1-mIgG2b and pVL-C1-mouse kappa; also called mIgG2b-C1; source: CHO-K1, stably transfected; culture supernatant, and purified (protein G-Sepharose)
B9: human IgG1-C1 (JS1), parental human IgG1 antibody (antibody, V domains shown)
VH: B5 VH
VL: B5 VL
notes: VH of C1 (anti-PfMSP1_19); human IgG1 heavy-chain constant region; VL of C1; light-chain constant region of pVKExpress C1; IgG1; also called hIgG1-C1; (h)IgG1-C1

Biological target: T1, recombinant PyMSP1_(19)-GST (Plasmodium yoelii yoelii (strain not …, UniProt P13828))
T1 construct: merozoite surface protein 1 (MSP1), Plasmodium yoelii, C-terminal 19-kDa region (MSP1_19), homologous to PfMSP1_19; also called P. yoelii MSP1_(19); source: recombinant, purified (Lewis, 1989)
Experiment: ELISA; five micrograms of recombinant purified antigen (PfMSP1_19-GST or PyMSP1_19-GST) coated; culture supernatant of secreting clones; detected with HRP anti-mouse IgG Fc-specific or anti-mouse kappa light chain secondary antibodies; read at 450 nm
Settings: one partner purified

T1 sequence (P13828 whole entry, looked up): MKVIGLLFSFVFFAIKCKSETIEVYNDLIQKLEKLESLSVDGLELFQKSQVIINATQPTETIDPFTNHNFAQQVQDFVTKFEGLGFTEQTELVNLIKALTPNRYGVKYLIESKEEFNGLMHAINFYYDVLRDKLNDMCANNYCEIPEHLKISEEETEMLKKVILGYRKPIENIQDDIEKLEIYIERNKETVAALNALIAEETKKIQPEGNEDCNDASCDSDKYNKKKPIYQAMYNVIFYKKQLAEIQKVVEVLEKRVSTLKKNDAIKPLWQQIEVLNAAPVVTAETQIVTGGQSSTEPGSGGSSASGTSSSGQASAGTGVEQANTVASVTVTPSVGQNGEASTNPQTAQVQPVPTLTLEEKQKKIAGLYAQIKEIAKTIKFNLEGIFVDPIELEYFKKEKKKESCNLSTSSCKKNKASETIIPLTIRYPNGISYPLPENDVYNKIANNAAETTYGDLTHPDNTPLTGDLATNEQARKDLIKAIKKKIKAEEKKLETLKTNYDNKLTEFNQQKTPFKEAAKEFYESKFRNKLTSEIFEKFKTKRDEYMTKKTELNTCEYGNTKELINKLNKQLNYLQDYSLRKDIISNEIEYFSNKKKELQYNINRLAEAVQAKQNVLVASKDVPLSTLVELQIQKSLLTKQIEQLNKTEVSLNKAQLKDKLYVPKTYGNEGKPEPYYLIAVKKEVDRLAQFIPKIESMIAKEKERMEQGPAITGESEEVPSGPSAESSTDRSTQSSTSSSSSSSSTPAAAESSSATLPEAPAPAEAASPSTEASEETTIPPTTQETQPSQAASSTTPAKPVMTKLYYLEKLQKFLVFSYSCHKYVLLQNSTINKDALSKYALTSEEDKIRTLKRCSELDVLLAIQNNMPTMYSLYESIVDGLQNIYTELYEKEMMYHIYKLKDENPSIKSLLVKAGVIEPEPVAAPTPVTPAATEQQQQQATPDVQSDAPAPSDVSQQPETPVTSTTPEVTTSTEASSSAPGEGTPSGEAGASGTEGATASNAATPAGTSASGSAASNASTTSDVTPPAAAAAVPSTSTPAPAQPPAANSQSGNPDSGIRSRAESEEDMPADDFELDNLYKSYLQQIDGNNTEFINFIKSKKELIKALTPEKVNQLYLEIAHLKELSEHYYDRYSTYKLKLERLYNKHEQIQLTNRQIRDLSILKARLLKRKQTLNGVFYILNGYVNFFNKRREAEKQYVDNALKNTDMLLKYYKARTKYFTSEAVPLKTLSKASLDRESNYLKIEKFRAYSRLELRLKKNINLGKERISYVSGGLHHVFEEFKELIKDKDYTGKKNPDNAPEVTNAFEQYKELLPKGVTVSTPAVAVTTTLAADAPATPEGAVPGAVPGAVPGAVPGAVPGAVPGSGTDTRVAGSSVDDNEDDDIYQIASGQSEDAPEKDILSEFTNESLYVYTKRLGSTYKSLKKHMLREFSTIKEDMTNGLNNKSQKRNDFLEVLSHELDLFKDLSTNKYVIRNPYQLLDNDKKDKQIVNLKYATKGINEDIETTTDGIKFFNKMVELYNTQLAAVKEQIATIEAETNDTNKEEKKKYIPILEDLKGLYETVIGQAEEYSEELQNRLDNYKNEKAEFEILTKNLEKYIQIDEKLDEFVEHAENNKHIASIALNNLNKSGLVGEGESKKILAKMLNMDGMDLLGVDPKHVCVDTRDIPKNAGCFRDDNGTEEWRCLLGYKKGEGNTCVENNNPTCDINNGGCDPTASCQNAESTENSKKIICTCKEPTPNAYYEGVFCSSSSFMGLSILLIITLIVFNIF

| Binder | binding result |
| --- | --- |
| B1 | binds |
| B2 | binds |
| B3 | binds |
| B4 | binds |

Biological target: T2, recombinant PfMSP1_(19)-GST (Plasmodium falciparum, strain not …, UniProt P04933)
T2 construct: merozoite surface protein 1 (MSP1), Plasmodium falciparum, C-terminal 19-kDa region (MSP1_19); also called C-terminal 19-kDa region of Plasmodium falciparum merozoite surface protein 1; source: recombinant, purified (Burghaus and Holder, 1994)
Experiment: SPR; BIAcore X; PfMSP1_19-GST (50 μg/ml) amine-coupled to a CM5 chip; purified IgGs injected at 2, 1, 0.5, 0.25 and 0.125 μM, 50 μL at 10 μL/min; control Ag in flow cell 2
Settings: both partners purified

| Binder | Ka [M⁻¹] | Kd [nM] |
| --- | --- | --- |
| B5 | 4.48e+07 | 23 |
| B6 | 3.32e+07 | 30.1 |
| B7 | 2.33e+07 | 31.1 |
| B8 | 1.2e+07 | 84.1 |
| B9 | 3.94e+07 | 23 |

— article PMC3336205, “The generation and evaluation of two panels of epitope-matched mouse IgG1, IgG2a, IgG2b and IgG3 antibodies specific for Plasmodium falciparum and Plasmodium yoelii merozoite surface protein 1–19 (MSP1_(19))” (Experimental Parasitology, 2012)
